Test results from PMC8178172 (Structure (London, England : 1993), 2021).

Molecular target: human PACRG full-length short isoform (PACRG^FL, 257 a.a.) (human, UniProt Q96M98-2 1-257)
Experiment: cross-linking

B1: human MEIG1 (His6 tag cleaved) (natural protein)
chain: MASSDVKPKSVSHAKKWSEEIENLYRFQQAGYRDETEYRQVKQVSMVDRWPETGYVKKLQRRDNTFYYYNKQRECDDKEVHKVKIYAY
binding result: binds
